Assay results as given in IntAct's records for PubMed 15694340.

B1: Bcl-2-like protein 11 (Mus musculus), O54918 (parent)
chain: MAKQPSDVSSECDREGGQLQPAERPPQLRPGAPTSLQTEPQGNPDGEGDRCPHGSPQGPLAPPASPGPFATRSPLFIFVRRSSLLSRSSSGYFSFDTDRSPAPMSCDKSTQTPSPPCQAFNHYLSAMASIRQSQEEPEDLRPEIRIAQELRRIGDEFNETYTRRVFANDYREAEDHPQMVILQLLRFIFRLVWRRH
B2: Phorbol-12-myristate-13-acetate-induced protein 1 (Homo sapiens), Q13794 (parent)
chain: MPGKKARKNAQPSPARAPAELEVECATQLRRFGDKLNFRQKLLNLISKLFCSGT
partner: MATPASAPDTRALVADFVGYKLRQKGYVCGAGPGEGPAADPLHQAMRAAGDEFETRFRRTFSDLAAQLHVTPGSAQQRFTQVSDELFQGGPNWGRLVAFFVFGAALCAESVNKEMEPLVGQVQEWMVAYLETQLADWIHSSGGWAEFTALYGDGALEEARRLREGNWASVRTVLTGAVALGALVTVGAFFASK
B3: Phorbol-12-myristate-13-acetate-induced protein 1 (Homo sapiens), Q13794 (parent)
chain: B2 chain

Variants of: B1
Conditions: with mcl1_mouse Mcl1, P97287
Chain of mcl1_mouse Mcl1, P97287 (P97287 whole entry): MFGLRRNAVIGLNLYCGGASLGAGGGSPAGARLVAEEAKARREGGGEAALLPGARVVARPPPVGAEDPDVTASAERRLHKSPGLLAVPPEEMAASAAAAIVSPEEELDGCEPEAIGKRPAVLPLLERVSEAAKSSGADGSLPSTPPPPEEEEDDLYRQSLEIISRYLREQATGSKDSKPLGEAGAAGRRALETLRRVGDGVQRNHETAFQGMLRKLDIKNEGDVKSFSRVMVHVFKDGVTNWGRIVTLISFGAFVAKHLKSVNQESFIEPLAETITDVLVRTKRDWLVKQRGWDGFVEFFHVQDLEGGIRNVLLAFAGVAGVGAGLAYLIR

Variant	effect of a mutation on the interaction
MAKQPSDVSSECDREGGQLQPAERPPQLRPGAPTSLQTEPQGNPDGEGDRCPHGSPQGPLAPPASPGPFATRSPLFIFVRRSSLLSRSSSGYFSFDTDRSPAPMSCDKSTQTPSPPCQAFNHYLSAMASIRQSQEEPEDLRPEIRIAQEERRIGDEFNETYTRRVFANDYREAEDHPQMVILQLLRFIFRLVWRRH	decreasing interaction
MAKQPSDVSSECDREGGQLQPAERPPQLRPGAPTSLQTEPQGNPDGEGDRCPHGSPQGPLAPPASPGPFATRSPLFIFVRRSSLLSRSSSGYFSFDTDRSPAPMSCDKSTQTPSPPCQAFNHYLSAMASIRQSQEEPEDLRPEIRIAQELRREGDEFNETYTRRVFANDYREAEDHPQMVILQLLRFIFRLVWRRH	decreasing interaction
MAKQPSDVSSECDREGGQLQPAERPPQLRPGAPTSLQTEPQGNPDGEGDRCPHGSPQGPLAPPASPGPFATRSPLFIFVRRSSLLSRSSSGYFSFDTDRSPAPMSCDKSTQTPSPPCQAFNHYLSAMASIRQSQEEPEDLRPEIREAQELRRIGDEFNETYTRRVFANDYREAEDHPQMVILQLLRFIFRLVWRRH	decreasing interaction
MAKQPSDVSSECDREGGQLQPAERPPQLRPGAPTSLQTEPQGNPDGEGDRCPHGSPQGPLAPPASPGPFATRSPLFIFVRRSSLLSRSSSGYFSFDTDRSPAPMSCDKSTQTPSPPCQAFNHYLSAMASIRQSQEEPEDLRPEIRIAQELRRIGDEENETYTRRVFANDYREAEDHPQMVILQLLRFIFRLVWRRH	decreasing interaction

Variants of: B2
Conditions: with BCL2L2, Q92843

Variant	effect of a mutation on the interaction
MPGKKARKNAQPSPARAPAELEVECATQLRRFGDELNFRQKLLNLISKLFCSGT	increasing interaction
MPGKKARKNAQPSPARAPAELEVECATQLRRIGDKLNFRQKLLNLISKLFCSGT	increasing interaction

Variants of: B3
Conditions: with BCL2L1, Q07817-1
Chain of BCL2L1, Q07817-1 (Q07817 whole entry): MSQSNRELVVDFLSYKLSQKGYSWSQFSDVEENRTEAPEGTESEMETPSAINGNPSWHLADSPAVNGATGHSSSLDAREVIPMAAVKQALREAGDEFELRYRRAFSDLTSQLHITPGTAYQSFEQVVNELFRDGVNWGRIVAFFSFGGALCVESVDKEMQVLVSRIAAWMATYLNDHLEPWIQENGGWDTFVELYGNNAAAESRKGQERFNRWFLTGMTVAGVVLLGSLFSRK

Variant	effect of a mutation on the interaction
MPGKKARKNAQPSPARAPAELEVECATQLRRIGDKLNFRQKLLNLISKLFCSGT	increasing interaction
MPGKKARKNAQPSPARAPAELEVECATQLRRFGDELNFRQKLLNLISKLFCSGT	increasing interaction
